Experimental findings from US20170275344A1, “POLYPEPTIDES AND USES THEREOF AS A DRUG FOR TREATMENT OF AUTOIMMUNE DISORDERS” (Compugen Ltd., priority 2014, published 2017) are described below.

Holding throughout (type): in vivo, mouse
Assay [1] relates to SJL/J mice. Nature of the assay: T cell and Treg counts in spleen and CNS, day 44 of EAE with IL-10 or TGFb blockade (FACS). An excerpt:
On day 44 post disease induction, the rest of the mice were sacrificed and spleens and CNS were taken for cell counts and cell population analysis as described below.
2. The spleens and CNS were collected.
4. Experimental stains (CD45, CD3, CD4, CD25, FoxP3, Nrp-1, and Helios)
9. Gating scheme for flow: Singlets (FSC-A vs. FSC-H)->Cells (SSC-A vs. FSC-A)->Live (VID stain negative cells)->CD45hi->CD3/CD4+->CD25/FoxP3+->Helios/Nrp-1

Assay [2] relates to healthy human skin transplanted onto beige-SCID mice. Put plainly: Humanized psoriasis model: healthy human skin xenotransplants on beige-SCID mice injected with psoriatic patients' PBMCs. The settings on record: IHC, vs PBS treated group. An excerpt: In this model, psoriasis is induced in xenotransplants of healthy human skin transplanted onto beige severe combined immunodeficiency (SCID) mice followed by intradermal (i.d.) injection of IL-2 enriched Peripheral Blood Mononuclear Cells (PBMCs) isolated from blood of psoriasis patients (Nickoloff, 1995; Wrone-Smith, 1996 Gilhar et al., 2002, 2006, 2011). The activity of these compounds was compared to that of Enbrel, a TNF inhibitor which is an approved biological drug for treatment of psoriasis. As a control for model robustness, we used dexamethasone, a steroid with suppressive effects on inflammatory cytokines and chemokines such as TNF-alpha and interferon-gamma which cause severe psoriasis. All treatments were administered intradermally, except for dexamethasone which was given topically.
Study Protocol: A) Healthy human skin pieces with a width of 0.4 mm and surface area of 1.5×1.5 cm were provided from residual skin of routine plastic surgery procedures from the Plastic Surgery Department of the Rambam Medical Center, Israel. In addition, 20 mL blood samples were taken from psoriatic patients. B) Seventy (70) beige-severe combined immunodeficient mice (SCID) (weight˜20-25 g) were included in this study. Normal healthy human donor skin was transplanted onto the beige-SCID mice as previously described (Nickoloff et al., 1995; Wrone-Smith, 1996; Gilhar et al., 2002, 2006, 2011; Kalish et al., 2009) and the mice were divided into 7 groups. C) Peripheral Blood Mononuclear Cells (PBMCs) isolated from psoriatic patients' blood were cultured in the presence of IL-2 [Prospec, 100 U/mL of RPMI 1640 media, 10% human AB serum (Sigma, St. Louis, Mo.), 1% glutamine, 1% antibiotics (media components; Biological Industries, Kibbutz Beit Haemeck, Israel)] for 14 days, as previously described (Gilhar et al, 2002). D) Four weeks following engraftment, each mouse was injected intra-dermally (i.d.) into the grafted skin lesion, with 1×10^7 activated allogeneic enriched PBMCs from psoriatic patients (FIG. 20). Cells from different psoriasis patients were equally distributed between treatment groups so that each patient is represented in each treatment group. E) On the day of PBMCs injection into the skin grafts, mice were divided randomly into treatment groups (n=9-10 mice per group) and administration of all drugs started (FIG. 20). All tested compounds including the vehicle were given intradermally (intralesional), three times a week, except for dexamethasone which was given topically for 14 consecutive days (Table 3).
F) Twenty eight days after starting the injections and treatment, skin was harvested (FIG. 20). Grafts were analyzed for the following psoriatic parameters by histology: epidermal thickening (acanthosis), suprapapillary epidermal thinning (papillomatosis), hyperkeratosis, parakeratosis, orthokeratosis, agranulosis-hypogranulosis, appearance of neutrophils in the upper spinous layer or in the corneal cell layer—Munro microabscess, regular elongation of rete ridges, angiogenesis, edema and dilated tortuous blood vessels in the dermal papilla and mononuclear cell infiltrate in the papillary dermis. Epidermal thickness was measured as detailed below, and HLA-DR, ICAM-1, Ki-67 and immune infiltrates (anti-CD3 stain) were evaluated by immunohistochemistry (IHC).
The entire skin graft was excised and placed in 10% formal saline overnight. Then, the specimens were place in 70% ethanol and were embedded according to the standard H&E protocol. Histological assessment of the skin grafts was performed by light microscopy and evaluated by two blinded observers [the second observer evaluated random slides (about 25% of all slides) to compare the data obtained by the first observer. […] Epidermal thickness was determined with an ocular micrometer at a minimum of 50 points along the epidermis selected to represent points of maximal and minimal thickness.
Representative grafts were allocated for IHC analysis. […]

Assay [3] concerns SJL/J mice. Nature of the assay: Adoptive transfer R-EAE, clinical score. Here is the method:
Female SJL/J mice were primed with 50 ug of PLP139-151/CFA according to the standard laboratory protocol on day 0. On day 8 post disease induction, the inguinal lymph nodes were collected and the total lymph node cells were re-activated in culture in the presence of PLP139-151 for 3 days. At the end of culture, cells were collected and transferred into naive recipient SJL/J mice.
a. Mice were shaved (about a lin.xlin, square on the back between the hind flanks) and injected with CFA/PLP139-151 emulsion at 100 μl per mouse s.c., divided between three spots on the back and flanks. Peptide and final dose given per mouse: 50 μg of PLP139-151 peptide on day 0.
b. On day 8 post priming with PLP139-151/CFA, the draining inguinal lymph nodes were collected, and single cell suspensions were prepared. Total lymph node cells were cultured at a density of 8×10^6 cells per ml in the HL-1 medium plus PLP139-151 peptide (20 μg/ml) in T75 flasks.
c. After 3 days of culture, the PLP139-151 reactivated cells were collected and counted using an hemacytometer. The number of total viable cells and the number of blast cells was determined. The percentage of blast cells expected following this protocol is 20-30% of the total viable cells.
d. Unless otherwise specified, 3×10^6 cells were transferred to each recipient mouse by intravenous injection.
f. Mice were scored on the indicated days, on a 0-5 disease score scale per standard laboratory protocol: 0, no abnormality; 1, limp tail; 2, limp tail and hind limb weakness; 3, hind limb paralysis; 4, hind limb paralysis and forelimb weakness; and 5, moribund.

B1: C1ORF32 ECD-Fc (SEQ ID NO:42): fusion protein of human C1ORF32 ECD fused to mouse immunoglobulin Fc (human-mouse fusion protein) (protein)
chain: LQVTVPDKKKVAMLFQPTVLRCHFSTSSHQPAVVQWKFKSYCQDRMGESLGMSSTRAQSLSKRNLEWDPYLDCLDSRRTVRVVASKQGSTVTLGDFYRGREITIVHDADLQIGKLMWGDSGLYYCIITTPDDLEGKNEDSVELLVLGRTGLLADLLPSFAVEIMGSENLYFQGSGEPRGPTIKPCPPCKCPAPNLLGGPSVFIFPPKIKDVLMISLSPIVTCVVVDVSEDDPDVQISWFVNNVEVHTAQTQTHREDYNSTLRVVSALPIQHQDWMSGKEFKCKVNNKDLPAPIERTISKPKGSVRAPQVYVLPPPEEEMTKKQVTLTCMVTDFMPEDIYVEWTNNGKTELNYKNTEPVLDSDGSYFMYSKLRVEKKNWVERNSYSCSVVHEGLHNHHTTKSFSRTPGK
modifications: Fusion protein human C1ORF32-ECD fused to mouse IgG2a Fc
With B1, the “NRP+/Helios+ Treg subpopulation in the spleen” value in the assay on SJL/J mice [1] (administered concomitantly with anti-TGFβ) is reported as “increase”. Also, in the assay on SJL/J mice [1] (alone or concomitantly with anti-TGFβ), the “Nrp+/HeliosLo Treg subpopulation in the spleen” value was “trend of increase”. In the assay with SJL/J mice [1] (day 44), the “T cell counts in the spleen (mainly CD4+)” value is recorded as “increase”; the “effects on CNS and spleen cell counts following concomitant neutralization of IL-10 or TGF-β” value is “not observed”; the “leukocytes and T cell counts in the CNS (CD45+, CD4+, and CD25+/FoxP3+)” value is given as “pronounced decrease”. In the assay with SJL/J mice [1] (treatment alone), the “Nrp-/HeliosLo Treg subpopulation in the spleen” value is recorded as “upregulation”. In addition, the “infiltration of T cells (CD3 positive cells)” value in assay [2] is given as “significant reduction of CD3 positive cells”. In addition, in the assay on SJL/J mice [3] (100 ug/mouse i.p. 3x/wk for 2 wks from onset of disease remission, two studies), the “clinical signs of the disease (mean clinical score)” value was “robust inhibition of clinical signs of the disease”. Also, the disease induction result in the assay with SJL/J mice [3] (study Cgen data, treatment from the time of cell transfer, 100 ug/dose i.p. 3x/wk for 2 wks) is reported as “complete abolishment of disease induction”. Moreover, in the assay with SJL/J mice [3] (study MYC48 FACS, treatment from the time of cell transfer, 100 ug/dose i.p. 3x/wk for 2 wks), the disease development result is given as “abolished disease development”.
